T1: P60 (huANGPTL7-Fibrinogen-his) (human, UniProt O43827 129-343)
T1 construct: also called human ANGPTL7 fibrinogen domain; not shown: C-terminal short linker and His tag
T1 sequence: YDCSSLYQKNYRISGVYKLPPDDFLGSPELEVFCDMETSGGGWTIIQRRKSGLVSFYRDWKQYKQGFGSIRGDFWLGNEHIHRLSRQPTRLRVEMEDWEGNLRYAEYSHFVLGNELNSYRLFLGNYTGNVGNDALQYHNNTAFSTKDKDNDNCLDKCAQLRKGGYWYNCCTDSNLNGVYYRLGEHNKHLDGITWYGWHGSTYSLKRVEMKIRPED

T2: P66 (rabbit ANGPTL7-his) (rabbit, UniProt G1T4P1 27-344)
T2 construct: mature; also called rabbit ANGPTL7 protein
T2 sequence: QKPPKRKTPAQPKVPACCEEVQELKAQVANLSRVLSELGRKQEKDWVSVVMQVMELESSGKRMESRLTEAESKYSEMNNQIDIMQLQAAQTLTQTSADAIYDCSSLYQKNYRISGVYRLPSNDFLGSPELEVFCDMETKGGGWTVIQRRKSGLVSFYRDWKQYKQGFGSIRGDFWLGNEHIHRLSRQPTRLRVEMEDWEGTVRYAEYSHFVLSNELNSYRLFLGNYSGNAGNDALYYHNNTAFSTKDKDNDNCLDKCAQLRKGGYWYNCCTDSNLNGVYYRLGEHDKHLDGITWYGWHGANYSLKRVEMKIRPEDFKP

T3: Pext-01 (huANGTPL7-FLAG multimer) (human, UniProt O43827 27-346)
T3 construct: also called PExt-1; human wild type ANGPTL7 multimer; not shown: FLAG tag
T3 sequence: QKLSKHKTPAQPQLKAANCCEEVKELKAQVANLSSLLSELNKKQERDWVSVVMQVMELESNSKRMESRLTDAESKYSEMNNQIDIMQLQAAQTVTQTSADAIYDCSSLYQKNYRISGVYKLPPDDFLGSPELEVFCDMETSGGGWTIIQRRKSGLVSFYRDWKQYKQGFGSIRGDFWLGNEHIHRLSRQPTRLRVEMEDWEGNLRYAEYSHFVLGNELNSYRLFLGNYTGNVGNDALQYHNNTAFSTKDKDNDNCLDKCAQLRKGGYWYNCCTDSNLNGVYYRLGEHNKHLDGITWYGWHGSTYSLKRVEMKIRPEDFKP

T4: P63 (huANGTPL7-GGPGG_sub-his) (human, UniProt O43827 27-346)
T4 construct: also called full length human ANGPTL7 monomeric variant L59 GGPGG; not shown: C-terminal short linker and His tag
T4 sequence: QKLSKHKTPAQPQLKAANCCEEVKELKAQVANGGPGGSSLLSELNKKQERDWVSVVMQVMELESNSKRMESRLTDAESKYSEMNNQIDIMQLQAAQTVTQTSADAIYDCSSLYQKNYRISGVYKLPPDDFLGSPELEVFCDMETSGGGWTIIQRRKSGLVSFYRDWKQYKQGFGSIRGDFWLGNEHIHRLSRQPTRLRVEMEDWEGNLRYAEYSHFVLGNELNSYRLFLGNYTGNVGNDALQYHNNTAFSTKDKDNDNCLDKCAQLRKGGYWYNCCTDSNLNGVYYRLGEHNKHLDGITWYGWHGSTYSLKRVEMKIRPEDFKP


Legend:
[1] = molecular target: T1, P60 (huANGPTL7-Fibrinogen-his); test: BLI Octet HTX; IgG on AHC sensor; P60 at 200 nM
Protocol: ANGPTL7 Antibody Kinetics. Experiments were conducted to determine the reactivity and dissociation constants (KD) of anti-ANGPTL7 antibodies with the human fibrinogen domain of the ANGPTL7 protein. Binding experiments were performed on Octet HTX (ForteBio) in 1×PBS, pH 7.4, 0.1 mg/ml BSA, 0.05% Sodium Azide, and 0.02 Tween 20. Antibodies at a concentration of 50 nM were loaded on pre-hydrated AHC biosensors for 5 min. The loaded sensors were dipped into monovalent P60 (huANGPTL7-Fibrinogen-his) at a concentration of 200 nM for 5 min association, followed by 10 min dissociation. […] Responses (nm) at the end of association were also determined (Table 2).

[2] = molecular target: T1, P60 (huANGPTL7-Fibrinogen-his); test: BLI Octet HTX; IgG on AHC sensor; P60 at 200 nM; 1:1 fit
In short: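 Anti-ANGPTL7 IgG at 50 nM loaded 5 min on AHC biosensors, then dipped in monovalent P60 at 200 nM: 5 min association, 10 min dissociation.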

[3] = molecular target: T2, P66 (rabbit ANGPTL7-his); test: BLI Octet HTX; IgG on AHC sensor; P66 at 200 nM
Protocol: Experiments were also conducted to determine the reactivity and dissociation constants ([…]) of anti-ANGPTL7 antibodies with the rabbit ANGPTL7 protein. Binding experiments were performed on Octet HTX (ForteBio) in Rx PBS, pH 7.4, 0.1 mg/mi BSA, 0.05% Sodium Azide, and 0.02% Tween 20. Antibodies at a concentration of 50 nM were loaded on pre-hydrated AHC biosensors for 5 min. The loaded sensors were dipped into monovalent P66 (rabbit ANGPTL7-his) at a concentration of 200 nM for 5 min of association, followed by 10 min of dissociation. […] Responses (nm) at the end of association were also determined (Table 6).

[4] = molecular target: T3, Pext-01 (huANGTPL7-FLAG multimer); test: BLI Octet HTX; IgG on AHC sensor; Pext-01 at 100 nM; 1:1 fit; apparent KD
Protocol: Experiments were also conducted to determine the reactivity and dissociation constants (KD) of anti-ANGPTL7 antibodies with the human ANGPTL7 multimer protein. Binding experiments were performed on Octet HTX (ForteBio) in 1×PBS, pH 7.4, 0.1 mg/ml BSA, 0.05% Sodium Azide, and 0.02% Tween 20. Antibodies at a concentration of 50 nM were loaded on pre-hydrated AHC biosensors for 5 mi. The loaded sensors were dipped into Pext-01 (huANGTPL7-FLAG) at a concentration of 100 nM for 5 min of association, followed by 10 min of dissociation. […] Responses (nm) at the end of association were also determined (Table 7).

[5] = molecular target: T4, P63 (huANGTPL7-GGPGG_sub-his); test: BLI Octet HTX; IgG on AHC sensor; P63 at 100 nM
Protocol: Experiments were also conducted to determine the reactivity and dissociation constants (KD) of anti-ANGPTL7 antibodies with the human ANGPTL7 GGPGG_sub-his protein. Binding experiments were performed on Octet HTX (ForteBo) in 1×PBS, pH 7.4, 0.1 mg/mi BSA, 0.05% Sodium Azide, and 0.02% Tween 20. Antibodies at a concentration of 50 nM were loaded on pre-hydrated AHC biosensors for 5 min. The loaded sensors were dipped into monovalent P63 (huANGTPL7-GGPGG_sub-his) at a concentration of 100 nM for 5 min of association, followed by 10 min of dissociation.

[6] = molecular target: T2, P66 (rabbit ANGPTL7-his); test: BLI Octet HTX; IgG on AHC sensor; P66 at 200 nM; 1:1 fit
In short: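 Biolayer interferometry in PBS pH 7.4 with 0.1 mg/ml BSA, 0.05% sodium azide, 0.02% Tween 20; antibodies at 50 nM loaded on AHC sensors for 5 min. Monovalent analyte at 200 nM: 5 min association, 10 min dissociation; end-of-association response (nm) recorded, kinetics by 1:1 fit.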

| Binder | binding result [1] | Response [2] [nm] | binding result [3] | Response [4] [nm] | binding result [5] | Response [6] [nm] | Kd [6] [nM] |
| --- | --- | --- | --- | --- | --- | --- | --- |
| ATX-P-428 (antibody, human IgG1, kappa, N297A, V domains shown, Full chains (VH + hIgG1-Agly-Fc)) VH: QVQLVQSGAEVKKPGASVKVSCKASGYTFSSYGISWVRQAPGQGLEWMGWISAYNGNTNYAQNLRGRVAMTTDTSTTTAYMELRSLRSDDTAVYYCARVSLVWFGELPRGFDYWGQGTLVTVSS VL: not shown | no binding (tested: 200 nM) | 0.02 | no binding (tested: 200 nM) | 0.05 | no binding (tested: 100 nM) | 0.04 |  |
| ATX-P-443 (antibody, human IgG1, kappa, N297A, V domains shown, Full chains (VH + hIgG1-Agly-Fc)) VH: QVQLVQSGAEVKKPGASVKVSCKASGYTFTSYGISWVRQAPGQGLEWMGWIIAYNGNTNYAQKLQGRITMTTNTSTNTAYMELRSLRSDDTAVYYCGRDTGFSFDYWGQGTLVTVSS VL: not shown | no binding (tested: 200 nM) | 0.01 | no binding (tested: 200 nM) | 0.03 | no binding (tested: 100 nM) | 0.03 |  |
| ATX-P-449 (antibody, human IgG1, kappa, N297A, V domains shown, Full chains (VH + hIgG1-Agly-Fc)) VH: QVQLVESGGGVVQPGRSLRLSCAASGFAFSSYGMHWVRQAPGKGLEWVAVISYYGSNKYYADSVKGRFTISRDNSKNTLYLQMNSLRAEDTAVYHCARGITMDVWGKGTTVTVSS VL: EIVLTQSPATLSLSPGERATLSCRASQSVSSYLAWYQQKPGQAPRLLIYDASNRATGIPARFSGSGSGTDFTLTISSLEPEDFAVYYCQQRSNWPLTFGGGTKVEIKR | no binding (tested: 200 nM) | 0.08 |  | 0.65 | no binding (tested: 100 nM) | 0.74 | 0.626 |

From patent US20250296996A1 (BROADWING BIO, published 2025)
